Experiment [1] addresses T1, Peptide 5 (human).
T1 sequence (peptide): QQQPPPPPPPPPPPQ
Nature of the experiment: peptide microarray; Sp H; IgG 1 µg/ml.

Experiment [2] concerns the target T2, Peptide 41 (mouse).
T2 sequence (peptide): PPQPPPQGQPPPPPP
Nature of the experiment: peptide microarray; Sp M; IgG 10 µg/ml.

The target in experiment [3] is T3, Peptide 19 (cyno).
T3 sequence (peptide): PQAQPMLPQPQPPPP
Nature of the experiment: peptide microarray; Sp C1; IgG 1 µg/ml.

Experiment [4] deals with T4, Peptide 23 (cyno).
T4 sequence (peptide): QQQQQQQQQQPPPPP
Nature of the experiment: peptide microarray; Sp C2; IgG 1 µg/ml.

The target in experiment [5] is T5, Peptide 27 (cyno).
T5 sequence (peptide): PPPPPPPPPPPPQLP
Nature of the experiment: peptide microarray; Sp C2; IgG 1 µg/ml.

Experiment [6] concerns the target T3, Peptide 19 (cyno). Briefly: peptide microarray; Sp C1; IgG 10 µg/ml.
Experiment [7] addresses T4, Peptide 23 (cyno). Nature of the experiment: peptide microarray; Sp C2; IgG 10 µg/ml.
For experiment [8], the target named is T5, Peptide 27 (cyno). Briefly: peptide microarray; Sp C2; IgG 10 µg/ml.
The target of experiment [9] is T1, Peptide 5 (human). Nature of the experiment: peptide microarray; Sp H; IgG 10 µg/ml.
The target in experiment [10] is T2, Peptide 41 (mouse). Nature of the experiment: peptide microarray; Sp M; IgG 1 µg/ml.
Experiment [11] concerns the target T6, Peptide 20 (cyno).
T6 sequence (peptide): QAQPMLPQPQPPPPP
Briefly: peptide microarray; Sp C2 (first of two rows printed SEQ ID NO: 73); IgG 10 µg/ml.

The target of experiment [12] is T6, Peptide 20 (cyno). Nature of the experiment: peptide microarray; Sp C2 (second of two rows printed SEQ ID NO: 73); IgG 10 µg/ml.
The target in experiment [13] is T7, Peptide 15 (human, cyno).
T7 sequence (peptide): QPQPPPPPPPPPPGP
Briefly: peptide microarray; Sp H; IgG 1 µg/ml.

In experiment [14] the target is T8, Peptide 14 (human, cyno).
T8 sequence (peptide): PQPQPPPPPPPPPPG
Nature of the experiment: peptide microarray; Sp H; IgG 1 µg/ml.

Experiment [15] concerns the target T9, Peptide 6 (human).
T9 sequence (peptide): QQPPPPPPPPPPPQL
Briefly: peptide microarray; Sp H; IgG 1 µg/ml.

In experiment [16] the target is T6, Peptide 20 (cyno). Nature of the experiment: peptide microarray; Sp C2 (first of two rows printed SEQ ID NO: 73); IgG 1 µg/ml.
In experiment [17] the target is T6, Peptide 20 (cyno). Briefly: peptide microarray; Sp C1; IgG 1 µg/ml.
Experiment [18] deals with T7, Peptide 15 (human, cyno). Nature of the experiment: peptide microarray; Sp C2; IgG 1 µg/ml.
Experiment [19] deals with T8, Peptide 14 (human, cyno). Briefly: peptide microarray; Sp C2; IgG 1 µg/ml.
Experiment [20] addresses T6, Peptide 20 (cyno). Briefly: peptide microarray; Sp C2 (second of two rows printed SEQ ID NO: 73); IgG 1 µg/ml.
Experiment [21] deals with T6, Peptide 20 (cyno). Briefly: peptide microarray; Sp C1; IgG 10 µg/ml.
Experiment [22] deals with T7, Peptide 15 (human, cyno). Nature of the experiment: peptide microarray; Sp C2; IgG 10 µg/ml.
Experiment [23] has as its target T8, Peptide 14 (human, cyno). Nature of the experiment: peptide microarray; Sp C2; IgG 10 µg/ml.
In experiment [24] the target is T7, Peptide 15 (human, cyno). Briefly: peptide microarray; Sp H; IgG 10 µg/ml.
Experiment [25] deals with T8, Peptide 14 (human, cyno). Briefly: peptide microarray; Sp H; IgG 10 µg/ml.
In experiment [26] the target is T9, Peptide 6 (human). Briefly: peptide microarray; Sp H; IgG 10 µg/ml.

B1: ATL_0005335 (antibody, V domains shown)
VH: EVQLVESGGGLVKPGGSLRLSCAASGFTFNKAWMNWVRQAPGKGLEWVGRIKSGIDGGTTDYAAPVQGRFTISRDDSKNTVYLQMNSLNTEDTAVYYCIPPPYYYYYGLDVWGQGTTVTVSS
VL: QSALTQPASVSGSPGQSITISCTGTSSDIGSYNLVSWYQQHPGNAPKPLIYEGSKRPSGVSARFSGSKSGNTASLTISGLQPEDEADYYCSSYAGFNTLVFGGGTKVTVL
For B1, the corrected fluorescence intensity with Peptide 5 (human) [1] worked out at 0; with Peptide 41 (mouse) [2] it was 0; with Peptide 19 (cyno) [3] it was 79; in the experiment with Peptide 23 (cyno) [4], 0; in the experiment with Peptide 27 (cyno) [5], 0; in the experiment with Peptide 19 (cyno) [6] it was 453. Further, the corrected fluorescence intensity with Peptide 23 (cyno) [7] turned out to be 524; with Peptide 27 (cyno) [8], 604; with Peptide 5 (human) [9], 593; in the experiment with Peptide 41 (mouse) [10], 256.

B2: ATL_0005331 (antibody, V domains shown)
VH: B1 VH
VL: QSALTQPRSVSGSPGQSITISCTGTSSDVGSYNLVSWFQQHPGKAPKLIIYEVNKRPSGVPDRFSGSKSGNTASLTVSGLQAEDEADYYCGSYAGTNNVFGTGTKLTVL
As for B2, the corrected fluorescence intensity with Peptide 20 (cyno) [11] is 0; with Peptide 20 (cyno) [12], 0; with Peptide 15 (human, cyno) [13], 134; in the experiment with Peptide 14 (human, cyno) [14], 84; in the experiment with Peptide 5 (human) [1] it was 0; with Peptide 6 (human) [15], 0. The corrected fluorescence intensity with Peptide 20 (cyno) [16] was determined as 0; with Peptide 20 (cyno) [17], 178; with Peptide 15 (human, cyno) [18], 50; with Peptide 14 (human, cyno) [19] it was 45.5; with Peptide 27 (cyno) [5], 99.2; with Peptide 20 (cyno) [20], 51.5. In addition, the corrected fluorescence intensity with Peptide 20 (cyno) [21] was determined as 504; with Peptide 15 (human, cyno) [22], 478; with Peptide 14 (human, cyno) [23], 464; with Peptide 27 (cyno) [8], 321; with Peptide 15 (human, cyno) [24], 382; with Peptide 14 (human, cyno) [25], 412. The corrected fluorescence intensity is 382 with Peptide 5 (human) [9] and 397 in the experiment with Peptide 6 (human) [26].

(Values after US20260209320A1.)
